{"source": "patent US8168587B2", "about": "“Combination enzyme replacement and small molecule therapy for treatment of lysosomal storage diseases” (Genezyme Corporation, priority 2000, dated 2012)", "molecules": {"B1": {"name": "α-galactosidase A: lysosomal enzyme deficient in Fabry disease, given as a single intravenous infusion for enzyme replacement (protein, UniProt P06280 32-429, looked up)", "Alpha-galactosidase A": "LDNGLARTPTMGWLHWERFMCNLDCQEEPDSCISEKLFMEMAELMVSEGWKDAGYEYLCIDDCWMAPQRDSEGRLQADPQRFPHGIRQLANYVHSKGLKLGIYADVGNKTCAGFPGSFGYYDIDAQTFADWGVDLLKFDGCYCDSLENLADGYKHMSLALNRTGRSIVYSCEWPLYMWPFQKPNYTEIRQYCNHWRNFADIDDSWKSIKSILDWTSFNQERIVDVAGPGGWNDPDMLVIGNFGLSWNQQVTQMALWAIMAAPLFMSNDLRHISPQAKALLQDKDVIAINQDPLGKQGYQLRQGDNFEVWERPLSGLAWAVAMINRQEIGGPRSYTIAVASLGKGVACNPACFITQLLPVKRKLGFYEWTSRLRSHINPTGTVLLQLENTMQMSLKDLL"}}, "system": "Fabry mice", "experiment": "Sequential enzyme replacement then small molecule therapy: GB3 re-accumulation in Fabry mouse liver", "source_text": "In vivo efficacy of combination enzyme replacement therapy plus small molecule therapy in Fabry disease. […] Study protocol for sequential combination of enzyme (α-galactosidase A) replacement followed by small molecule administration (NB-DNJ, AMP-DNJ or D-t-et-P4) on globotriaosylceramide (GB3) re-accumulation in Fabry mice. […] Results of study protocol for Fabry mouse liver tissue. GB3 re-accumulation at four weeks (μg GB3 per gm liver tissue) is plotted on the ordinate versus absence of small molecule treatment (Vehicle) or daily intra-peritoneal small molecule therapy with D-t-et-P4 (at either 5 mg/kg or 0.5 mg/kg), NB-DNJ (at 500 mg/kg), or AMP-DNJ (at 100 mg/kg).\nFabry mice were used to test the in vivo efficacy of combining enzyme replacement therapy with small molecule therapy in a sequential treatment format (FIG. 1). The study was designed to evaluate whether substrate inhibition (i.e. “substrate deprivation therapy”) using small molecules of the DNJ and P4 types could reduce re-accumulation of the storage material globotriaosylceramide (GB3). The study protocol (FIG. 1A) called for a single infusion of α-galactosidase A enzyme to reduce GB3 levels (measured at two weeks) to a “Baseline” level in Fabry mouse liver. GB3 re-accumulation was then measured at four weeks in control mice receiving no small molecule therapy (“Vehicle”) and in mice receiving various small molecules at various doses. Accordingly, two weeks after GB3 levels were reduced to a “Baseline” level of about 0.1 μg/g liver (FIG. 1B), a small molecule or vehicle was administered by intra-peritoneal (IP) injection.", "data": [{"molecule": "D-threo-1-(3′,4′-ethylenedioxy)phenyl-2-palmitoylamino-3-pyrrolidino-1-propanol [D-t-et-P4, reference compound]", "values": [{"measurement": "GB3 re-accumulation in Fabry mouse liver tissue", "setting": "5 mg/kg daily IP after single α-galactosidase A infusion, four week time point, vehicle about 0.8, baseline about 0.1", "result": "less than 0.4 μg/gm"}]}, {"molecule": "B1", "values": [{"measurement": "Baseline GB3 level in Fabry mouse liver", "setting": "two weeks after a single infusion of α-galactosidase A enzyme", "result": "about 0.1 μg/g liver"}, {"measurement": "Baseline GB3 level in Fabry mouse liver", "setting": "two weeks after a single α-galactosidase A intravenous infusion", "result": "about 0.1 μg/gm liver tissue"}]}]}
